The labels stand for the following.
B1: h001-14 (antibody, human IgG1, V domains shown)
VH: QVQLVQSGAEVKKPGASVKVSCKASGYTFNDYWMHWVRQAPGQGLEWMGYINPSSGFTKYHQNFKDRVTMTRDTSISTAYMELSRLTSDDTAVYYCARQYDYDEDWYFDVWGQGTTVTVSS
VL: DIQMTQSPSSLSASVGDRVTITCKSSQSLLNSRTRKNFLAWYQQKPGKAPKLLIYWASTRESGVPDRFSGSGSGTDFTLTISSLQPEDFATYYCKQSFNLFTFGQGTKLEIK
notes: Variable regions only; also called h001_VH.1C + h001_VL.1A
B2: h001-18 (antibody, human IgG1, V domains shown)
VH: B1 VH with R72A, T74K
VL: B1 VL
notes: Variable regions only; also called h001_VH.1D + h001_VL.1A
B3: h001-24 (antibody, human IgG1, V domains shown)
VH: B1 VH with R38K, M48I, R67K, V68A, M70L, R72A, T74K
VL: B1 VL with Q3V, T5S, A49S
notes: Variable regions only; also called h001_VH.1E + h001_VL.1C
B4: h001-17 (antibody, human IgG1, V domains shown)
VH: B1 VH with R72A, T74K
VL: B1 VL with D66S
notes: Variable regions only; also called h001_VH.1D + h001_VL.1
B5: h001-22 (antibody, human IgG1, V domains shown)
VH: B1 VH with R38K, M48I, R67K, V68A, M70L, R72A, T74K
VL: B1 VL
notes: Variable regions only; also called h001_VH.1E + h001_VL.1A
B6: h001-20 (antibody, human IgG1, V domains shown)
VH: B1 VH with R72A, T74K
VL: B1 VL with Q3V, T5S, A49S
notes: Variable regions only; also called h001_VH.1D + h001_VL.1C
B7: h001-16 (antibody, human IgG1, V domains shown)
VH: B1 VH
VL: B1 VL with Q3V, T5S, A49S
notes: Variable regions only; also called h001_VH.1C + h001_VL.1C
B8: h001-11 (antibody, human IgG1, V domains shown)
VH: B1 VH with N30T
VL: B1 VL with T5S
notes: Variable regions only; also called h001_VH.1B + h001_VL.1B
B9: h001-13 (antibody, human IgG1, V domains shown)
VH: B1 VH
VL: B1 VL with D66S
notes: Variable regions only; also called h001_VH.1C + h001_VL.1
B10: h001-23 (antibody, human IgG1, V domains shown)
VH: B1 VH with R38K, M48I, R67K, V68A, M70L, R72A, T74K
VL: B1 VL with T5S
notes: Variable regions only; also called h001_VH.1E + h001_VL.1B
B11: h001-12 (antibody, human IgG1, V domains shown)
VH: B1 VH with N30T
VL: B1 VL with Q3V, T5S, A49S
notes: Variable regions only; also called h001_VH.1B + h001_VL.1C
B12: h001-15 (antibody, human IgG1, V domains shown)
VH: B1 VH
VL: B1 VL with T5S
notes: Variable regions only; also called h001_VH.1C + h001_VL.1B
B13: h001-19 (antibody, human IgG1, V domains shown)
VH: B1 VH with R72A, T74K
VL: B1 VL with T5S
notes: Variable regions only; also called h001_VH.1D + h001_VL.1B
B14: h001-21 (antibody, human IgG1, V domains shown)
VH: B1 VH with R38K, M48I, R67K, V68A, M70L, R72A, T74K
VL: B1 VL with D66S
notes: Variable regions only; also called h001_VH.1E + h001_VL.1

Residue numbers refer to the chain shown, from its start.

The first experiment concerns the target T1, PCSK9-D374Y-BP15-His6 (human, UniProt Q8NBP7 31-692, biotin on the BP15 biotin receiving peptide).
T1 construct: also called PCSK9-Y; mutant PCSK9
Kind of experiment: ELISA, bio-PCSK9-Y captured on streptavidin plate. As for the experimental part: The binding ability of anti-PCSK9 antibodies of the present invention to PCSK9-Y was detected by measuring the amount of antibodies binding to PCSK9-Y (mutant PCSK9, SEQ ID NO: 6) fixed on the ELISA plate.
Streptavidin (sigma, CAT#54762) was diluted to 2 μg/ml with PBS and coated into 96-well ELISA plate at 4° C. overnight. The plate was washed and then blocked with Tris buffer (including 0.9 mM CaCl₂, 0.05% Tween 20 and 5% skim milk) at 37° C. for 2 hours. Then the plate was washed again and 100 μl/well of the biotin-labeled PCSK9-Y, produced in-house, (bio-PCSK9-Y, diluted with Tris buffer containing 0.9 mM CaCl₂, 0.05% Tween 20 and 1% skim milk) was added and incubated at 37° C. for 1 hour. After the wash step, different concentrations of diluted PCSK9 antibody samples were added to the plate and incubated at 37° C. for 1 hour. Then the plate was washed again and HRP-goat-anti-human (H+L) antibody (Jackson ImmunoResearch, CAT#109-035-088) was added and incubated at 37° C. for 1 hour. Then the plate was washed again and tetramethylbenzidine solution was added for development. Finally, the stop solution was added and the OD450 value was measured on the Microplate reader, and then EC50 was calculated.
The results of ELISA test for the binding ability of chimeric antibodies and back-mutated antibodies of the present invention to mutant PCSK9 are shown in table 6.
The term EC50 denotes the concentration that produces a half-maximal response. A high value points to a need for much substance. In the case of B1, the EC50 came to 0.0112 µg/mL.

In turn, B2 displayed an EC50 of 0.0191 µg/mL.

Molecule B3 returned an EC50 of 0.017 µg/mL.

The molecule B4 had an EC50 of 0.0161 µg/mL. The EC50 values of the last two molecules are within 1.5-fold of each other.

B5 gave an EC50 of 0.0111 µg/mL.

For the molecule B6, a half-maximal response (EC50) required 0.017 µg/mL.

With B7, the EC50 worked out at 0.0111 µg/mL.

With B8, the EC50 stood at 0.017 µg/mL.

As for B9, the EC50 came out at 0.0096 µg/mL.

The molecule B10 registered an EC50 of 0.0125 µg/mL.

Molecule B11 yielded an EC50 of 0.0124 µg/mL.

For the molecule B12, the concentration giving a half-maximal response (EC50) was 0.0178 µg/mL. This EC50 and that of the molecule before are within 1.5-fold of each other.

B13 registered a half-maximal effective concentration (EC50) of 0.0204 µg/mL. This EC50 and that of the molecule before are within 1.5-fold of each other.

As to B14, the EC50 stood at 0.0119 µg/mL.

Another experiment deals with T2, PCSK9-BP15-His6 (human, UniProt Q8NBP7 31-692, biotin on the BP15 biotin receiving peptide).
T2 construct: It holds a signal peptide (underlined in print); also called WT PCSK9; bio-WT-PCSK9
Kind of experiment: ELISA, bio-WT-PCSK9 captured on streptavidin plate. As for the experimental part:
The binding ability of anti-PCSK9 antibodies of the present invention to PCSK9 was detected by measuring the amount of antibodies binding to wild-type PCSK9 protein (WT PCSK9, SEQ ID NO: 5) fixed on the ELISA plate.
Streptavidin (sigma, CAT#S4762) was diluted to 2 μg/ml with PBS and coated into 96-well ELISA plate, at 4° C. overnight. The plate was washed and then blocked with Tris buffer (including 0.9 mM CaCl2, 0.05% Tween 20 and 5% skim milk) at 37° C. for 2 hours. Then the plate was washed again and 100 μl/well of the biotin-labeled PCSK9, produced in-house, (bio-WT-PCSK9, diluted with Tris buffer containing 0.9 mM CaCl2, 0.05% Tween 20 and 1% skim milk), was added and incubated at 37° C. for 1 hour. After the wash step, different concentrations of diluted PCSK9 antibody samples was added to the plate and incubated at 37° C. for 1 hour. Then the plate was washed again and HRP-goat-anti-human (H+L) antibody (Jackson ImmunoResearch, CAT#109-035-088) was added and incubated at 37° C. for 1 hour. Then the plate was washed again and tetramethylbenzidine solution was added for development. Finally, the stop solution was added and the OD450 value was measured on the Microplate reader, and then EC50 was calculated.
In general terms: An ELISA detects its analyte on a solid surface through an enzyme-linked reagent.
Molecule B1 yielded an EC50 of 0.0084 µg/mL.

In turn, B2 had a concentration for a half-maximal effect (EC50) of 0.0147 µg/mL.

B3 showed a half-maximal effective concentration (EC50) of 0.0092 µg/mL.

B4 came in with an EC50 of 0.0114 µg/mL.

Molecule B5 returned an EC50 of 0.0123 µg/mL.

In turn, B6 displayed an EC50 of 0.0126 µg/mL.

The molecule B7 came in with an EC50 of 0.0082 µg/mL.

Regarding B8, the EC50 worked out at 0.0129 µg/mL.

B9 gave an EC50 of 0.0071 µg/mL.

Regarding B10, the EC50 was 0.0118 µg/mL. Compared with the last molecule, the EC50 is about 1.7-fold higher.

On to B11, for which a half-maximal effect (EC50) was put at 0.0103 µg/mL.

B12 yielded an EC50 of 0.011 µg/mL.

Molecule B13 yielded an EC50 of 0.0139 µg/mL. This EC50 and that of the molecule before are within 1.5-fold of each other.

B14 showed an EC50 of 0.0145 µg/mL.

The values are drawn from patent US20190016825A1 (JIANGSU HENGRUI MEDICINE, published 2019).
